Data as given in the supplement of paper PMC11136658.

Tested on: peptide library, one residue held at a place counted from the Y acceptor
Experiment: relative phosphorylation of the sub-library (ratio to the mean residue at this position); higher = residue favoured
Summary of the method: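 Purified recombinant kinases were given 50 μM ATP with γ-32P-ATP and biotinylated Tyr-centred peptide library mixtures for 90 min in 384-well plates. Peptides bound to streptavidin membranes were rinsed and quantified by phosphorimaging, and intensities were normalized per position by the sum of the 18 randomized residues (16 with the Ser/Thr-free library) and multiplied by that number. The reported values are phosphorylation relative to the mean randomized residue.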

PDHK1, construct: Full length, human, sequence (Q15118 whole entry, looked up): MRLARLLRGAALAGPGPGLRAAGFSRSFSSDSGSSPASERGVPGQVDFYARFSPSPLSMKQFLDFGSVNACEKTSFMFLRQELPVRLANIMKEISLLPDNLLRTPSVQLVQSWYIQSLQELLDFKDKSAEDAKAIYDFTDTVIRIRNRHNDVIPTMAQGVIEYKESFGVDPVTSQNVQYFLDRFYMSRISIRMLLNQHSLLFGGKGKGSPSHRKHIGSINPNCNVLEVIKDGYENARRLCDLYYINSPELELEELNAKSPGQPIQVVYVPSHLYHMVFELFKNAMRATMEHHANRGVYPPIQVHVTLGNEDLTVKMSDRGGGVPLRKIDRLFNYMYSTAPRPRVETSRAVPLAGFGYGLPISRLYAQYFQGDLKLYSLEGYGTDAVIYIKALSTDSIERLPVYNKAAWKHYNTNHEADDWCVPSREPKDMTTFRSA

PDHK1, construct: Full length, human (from UniProt Q15118)
relative phosphorylation
Settings | at +1 | at +2 | at +3 | at +4 | at +5 | at -1 | at -2 | at -3 | at -4 | at -5
A fixed | 0.893 | 0.682 | 0.8 | 0.868 | 0.717 | 0.76 | 1.54 | 0.847 | 0.895 | 0.845
D fixed | 1.27 | 1.58 | 1.3 | 1.3 | 1.52 | 1.58 | 1.19 | 1.2 | 1.32 | 1.24
E fixed | 1.12 | 1.17 | 1.41 | 1.16 | 1.27 | 1.96 | 1.24 | 1.06 | 1.26 | 1.34
F fixed | 0.897 | 1.29 | 0.991 | 0.899 | 0.97 | 0.627 | 0.764 | 0.933 | 1.06 | 1.01
G fixed | 1.04 | 0.92 | 1.02 | 1.16 | 1.1 | 0.971 | 1.17 | 1.03 | 1.06 | 0.973
H fixed | 1.2 | 1.02 | 1.03 | 1.17 | 1.08 | 0.937 | 0.903 | 1.01 | 1 | 1.14
I fixed | 0.779 | 0.704 | 0.862 | 0.895 | 0.845 | 0.938 | 0.71 | 0.72 | 0.755 | 0.844
K fixed | 0.785 | 0.938 | 0.809 | 0.891 | 0.784 | 0.819 | 0.827 | 0.912 | 0.865 | 0.974
L fixed | 0.844 | 0.863 | 0.78 | 0.907 | 0.838 | 0.888 | 0.72 | 0.93 | 0.881 | 0.906
M fixed | 1.18 | 0.882 | 1.03 | 0.911 | 0.873 | 0.794 | 0.826 | 0.843 | 0.914 | 0.837
N fixed | 1.1 | 1.02 | 1.01 | 0.982 | 1.04 | 1.03 | 1.01 | 1.01 | 0.997 | 1.03
P fixed | 0.925 | 1.1 | 0.981 | 1.16 | 0.898 | 0.974 | 1.73 | 1.06 | 0.91 | 0.945
Q fixed | 0.986 | 0.997 | 1.02 | 0.986 | 0.992 | 0.983 | 0.863 | 1.19 | 1.18 | 0.977
R fixed | 0.822 | 0.851 | 0.899 | 0.819 | 0.863 | 0.744 | 0.818 | 0.976 | 0.891 | 0.935
V fixed | 0.739 | 0.707 | 0.766 | 0.718 | 0.747 | 1.03 | 0.758 | 0.802 | 0.759 | 0.702
W fixed | 1.41 | 1.27 | 1.3 | 1.18 | 1.47 | 0.96 | 0.934 | 1.48 | 1.26 | 1.3
pThr fixed | 1.42 | 1.51 | 1.34 | 1.12 | 1.01 | 1.72 | 1.35 | 1.53 | 1.52 | 1.45
pTyr fixed | 1.23 | 1.36 | 1.41 | 1.14 | 1.31 | 1.71 | 1.63 | 1.64 | 1.36 | 1.47
